From article PMC4676636, “Aptamers Binding to c-Met Inhibiting Tumor Cell Migration” come the findings set out here.

Data set [1] has as its target T1, human c-Met-Fc (c-Met ectodomain, IgG1-Fc fusion) (Homo sapiens, UniProt P08581 25-932). Kind of data set: competition; vs 32P-CLN3-T; Dotblot: nitrocellulose filter, 37 C (competition, 30 min); BLI: DPBS, 37 C, Protein A tips, 1:1 fit; ELISA: PBS/1% BSA; flow cytometry: PBS/1% BSA, 4 C, 30 min. Particulars: protein: recombinant; tags: Fc (IgG1); chain copies: 2.
Data set [2] concerns the target T1, human c-Met-Fc (c-Met ectodomain, …). The data set can be described thus: competition; vs 32P-CLN64-T; Dotblot: nitrocellulose filter, 37 C (competition, 30 min); BLI: DPBS, 37 C, Protein A tips, 1:1 fit; ELISA: PBS/1% BSA; flow cytometry: PBS/1% BSA, 4 C, 30 min. To be noted: protein: recombinant; tags: Fc (IgG1); chain copies: 2; 3'-biotin (CLN-F-B, cells). In general terms: ELISA stands for enzyme-linked immunosorbent assay.

For data set [3] the target is unchanged. Kind of data set: filter binding (dotblot); Dotblot: nitrocellulose filter, 37 C (competition, 30 min); BLI: DPBS, 37 C, Protein A tips, 1:1 fit; ELISA: PBS/1% BSA; flow cytometry: PBS/1% BSA, 4 C, 30 min. To be noted: protein: recombinant; tags: Fc (IgG1); chain copies: 2; label: 32P (dotblot).
Data set [4] shares this target. The data set can be described thus: competition ELISA; competes with immobilized HGF; Fig 2 legend gives 72 nM; Dotblot: nitrocellulose filter, 37 C (competition, 30 min); BLI: DPBS, 37 C, Protein A tips, 1:1 fit; ELISA: PBS/1% BSA; flow cytometry: PBS/1% BSA, 4 C, 30 min. To be noted: protein: recombinant; tags: Fc (IgG1); chain copies: 2; label: 32P (dotblot).

T1 sequence (P08581 25-932): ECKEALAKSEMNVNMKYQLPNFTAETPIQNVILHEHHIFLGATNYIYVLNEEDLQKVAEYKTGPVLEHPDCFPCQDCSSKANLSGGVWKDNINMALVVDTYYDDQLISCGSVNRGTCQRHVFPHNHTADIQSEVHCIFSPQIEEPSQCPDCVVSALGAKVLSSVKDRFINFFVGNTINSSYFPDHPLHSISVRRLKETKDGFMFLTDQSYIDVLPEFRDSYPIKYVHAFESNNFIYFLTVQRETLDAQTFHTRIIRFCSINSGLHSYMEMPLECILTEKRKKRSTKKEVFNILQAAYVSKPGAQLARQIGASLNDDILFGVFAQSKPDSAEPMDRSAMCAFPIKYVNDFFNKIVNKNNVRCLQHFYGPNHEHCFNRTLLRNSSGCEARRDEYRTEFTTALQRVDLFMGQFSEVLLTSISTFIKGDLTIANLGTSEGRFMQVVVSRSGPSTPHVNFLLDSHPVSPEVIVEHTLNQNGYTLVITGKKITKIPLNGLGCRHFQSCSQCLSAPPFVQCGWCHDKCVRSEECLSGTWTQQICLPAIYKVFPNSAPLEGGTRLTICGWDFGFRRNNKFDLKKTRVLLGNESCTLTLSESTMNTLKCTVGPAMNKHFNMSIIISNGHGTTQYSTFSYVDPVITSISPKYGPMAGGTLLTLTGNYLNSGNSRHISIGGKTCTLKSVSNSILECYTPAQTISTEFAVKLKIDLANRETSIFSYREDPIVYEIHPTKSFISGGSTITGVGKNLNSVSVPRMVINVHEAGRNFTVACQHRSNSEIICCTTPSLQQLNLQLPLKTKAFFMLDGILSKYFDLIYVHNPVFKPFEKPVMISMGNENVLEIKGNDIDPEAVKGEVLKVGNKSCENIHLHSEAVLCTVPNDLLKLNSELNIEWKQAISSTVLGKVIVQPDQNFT

B1: CLN-X (ssDNA)
DNA: GGAGGGAAAAGTTATCAGGCATGCGCTAGCCGATCGAATCCCGTAGACATTCCGATCGACGATTAGTTTTGGAGTACTCGCTCC
Consider B1, for which the binding result in data set [1] is given as “no binding”.

B2: CLN-F (XNA)
DNA: GGAGGGAAAAGTTATCAGGCCGCTAGTTACCAGGTGTAGCTGACCAAGCGGATGTGTGTTGATTAGTTTTGGAGTACTCGCTCC
modifications: 2'-O-methyl purines and 2'-fluoro pyrimidines (mRfY)
Regarding B2, in data set [2], the binding result is “no binding”.

B3: CLN3-T (SL1) (ssDNA)
DNA: GAAAAGTTATCAGGCTGGATGGTAGCTCGGTCGGGGTGGGTGGGTTGGCAAGTCTGATT
A word on the Kd: it is the free concentration of one partner at which half of the binding sites on the other are occupied at equilibrium, for simple one-to-one binding. In general, IC50 refers to the concentration that gives 50% inhibition. As for B3, the Kd in data set [3] worked out at 0.0001 µM. Further, in data set [4], the IC50 worked out at 0.074 µM.
